Values of other authors, collected in paper PMC10231660.
pKd: −log10 of the molar value. Where two headings read alike, the source gives them in different places. One block for each substance: values may come before it.

Assays:
[1] = target: MC1R (UniProt Q01726)
[2] = target: ZNRF3 (Homo sapiens) (UniProt Q9ULT6)
[3] = target: BMPR1A ECD (Homo sapiens) (UniProt P36894)
[4] = target: ZNRF3 (Homo sapiens) (UniProt Q9ULT6); remark: listed apart in the source
[5] = target: ZNRF3 (Homo sapiens) (UniProt Q9ULT6); remark: listed apart in the source
[6] = target: ZNRF3 (Homo sapiens) (UniProt Q9ULT6); remark: listed apart in the source

Chain of UniProt Q9ULT6 (Q9ULT6 56-219): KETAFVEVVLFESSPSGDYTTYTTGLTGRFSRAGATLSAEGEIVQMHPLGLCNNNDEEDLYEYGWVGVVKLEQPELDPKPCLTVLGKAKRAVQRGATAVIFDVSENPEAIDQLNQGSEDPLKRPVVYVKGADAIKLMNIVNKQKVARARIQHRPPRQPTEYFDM
Chain of UniProt Q01726 (Q01726 whole entry): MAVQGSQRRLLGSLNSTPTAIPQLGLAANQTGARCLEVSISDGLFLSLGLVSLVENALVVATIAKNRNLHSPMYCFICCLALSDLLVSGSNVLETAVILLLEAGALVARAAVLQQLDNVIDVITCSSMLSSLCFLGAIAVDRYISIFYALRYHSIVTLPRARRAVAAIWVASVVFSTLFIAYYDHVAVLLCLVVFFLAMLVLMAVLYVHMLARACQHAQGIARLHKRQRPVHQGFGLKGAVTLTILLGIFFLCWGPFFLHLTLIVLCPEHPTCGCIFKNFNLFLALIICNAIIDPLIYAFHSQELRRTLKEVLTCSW
Chain of UniProt P36894 (P36894 24-152): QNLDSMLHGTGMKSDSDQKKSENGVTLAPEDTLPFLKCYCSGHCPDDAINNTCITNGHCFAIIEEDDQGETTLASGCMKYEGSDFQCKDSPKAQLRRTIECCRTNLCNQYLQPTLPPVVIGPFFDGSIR

pKd [1]: 9.00
Substance: ASP CTD (from UniProt P42127)

pKd [2]: 5.17
Substance: RSPO1 FU1 (from UniProt Q2MKA7)

pKd [3]: 8.32
Substance: RSPO2 (from UniProt Q6UXX9)

pKd [4]: 7.60
Substance: RSPO2 FU1 (from UniProt Q6UXX9)

pKd [5]: 7.22
Substance: RSPO3 FU1 (from UniProt Q9BXY4)

pKd [6]: 3.52
Substance: RSPO4 FU1 (from UniProt Q2I0M5)
